How the values were obtained:
[1] = biological target: high affinity binding site on murine Balb/C splenocytes (mouse); assay: binding of 125I-labelled PT to isolated murine spleen cells; non-specific binding (100-fold excess of unlabelled iodinated PT) subtracted
[2] = system: Balb C splenocytes; assay: Mitogen assay (^3H-thymidine uptake), murine splenocytes; type: cell-based
[3] = system: Balb C splenocytes; assay: as above; type: cell-based; conditions: for CPM of tritiated thymidine incorporated: Balb C splenocytes
Excerpt: (§1) Murine spleen cells or human peripheral blood lymphocytes (PBLS) were obtained aseptically as described herein for use in the mitogen assay. When murine splenocytes were used, they were first treated with red cell lysing buffer (0.17 M Tris, 0.144 NH4C1, pH 7.2), washed in RPMI-10 (standard RPMI growth medium, Sigma Chemical Co., St. Louis, Mo., supplemented with 10% fetal bovine serum) and viable cells counted using Trypan Blue exclusion. Human PBLs were isolated from blood using HISTOPAQUE™-1077, a solution of FICOLL™ and sodium diatrizoate (Sigma Chemical Co., St. Louis, Mo.), and subsequent washings with RPMI-5 (RPMI supplemented with 5% fetal bovine serum) to remove platelets. Isolated lymphocytes were resuspended in RPMI-10 and a viable cell yield determined by Trypan Blue exclusion.
(§2) Drugs and known mitogenic controls were added in triplicate to a 96-well flat bottom microplate aseptically. The culture medium was RPMI-10. Splenocytes or human-lymphocytes were added at a concentration of 3-4×10^5 cells/well, to a final volume of 200 μl/well. The assay plate was incubated at 37° C. in a 5% CO2 humidified incubator. At 48-50 hours, ^3H-thymidine was added (1 μCi/well), and the plate was harvested approximately 16-18 hours later.
(§3) Mitogen assay microplates were harvested using an Inotech plate harvester (Inotech Biosystems International, Inc., Rockville, Md.). Counts per minute (cpm) per well were measured using the Berthold-Inotech Trace 96-plate reader (Inotech AT, Wohlen, Switzerland) and/or a scintillation counter (Packard Tri-carb 2100TR, Packard Instrument Co., Meriden, Conn.). Mitogenic activity was directly determined by comparing cpm levels to controls.
(§4) To test whether PT stimulates mitogen activity, splenocytes were incubated for two days with IL-2 (50 units/ml) or KLH (20 μg/ml) in conjunction with PT in the concentrations shown. Figures represent the radioactivity counts of tritiated thymidine taken up during a subsequent 20-hour incubation period of cells incubated with tritiated thymidine in RPMI.

[4] = system: IL-12; assay: ELISA of IL-12 production by splenocytes; type: cell-based, Balb C murine; conditions: Experiment 1; 48 hours; PT 0.05 μg/ml, KLH 10 μg/ml; control 1.5
Method: (§5) Identical plates are set up for an immunoassay and a mitogen assay. Mouse splenocytes and immuno-stimulating drugs are plated in duplicate wells (immunoassay) and triplicate wells (mitogen assay) in 96-well microplates as described above. The incubation at 37° C. in a humidified 5% CO2 incubator may vary from three to five days. At the end of the activation/proliferation period, the two identical plates are harvested as an immunoassay for cytokines or harvested as a mitogen assay (to which ^3H-thymidine has been added approximately 16-18 hours earlier).
(§6) Immunoassay kits used to detect IL-1β, IL-2, and IL-12 were the murine Quantikine M™ kits produced by R&D Systems (Minneapolis, Minn.). The general procedure is the same for all interleukin cytokines, and is described in the instructions provided by the manufacturer. All reagents are used at room temperature, and are prepared according to kit instructions.
(§7) The immunoassay plate is centrifuged at 200×g to pellet all cells. A 50 μl aliquot of Assay Diluent is first added to the center of each special enzyme-coated well supplied with the kit. Next, 50 μl of standard, control or test sample of supernatant from the immunoassay incubation plate is added to each well. This is incubated at room temperatures for two hours.
Liquid is aspirated from the wells, and the wells are washed five times with surfactant diluted 1:25 with distilled water. A 100 μL aliquot of Conjugate is added to each well and incubated two hours at room temperature. […]
One hundred microliters of Substrate Solution are added to each well and incubated 30 minutes at room temperature. […] The plate is read for absorbence at 450 nm and at 540 nm for background readings.
To calculate the results, the duplicate readings for each pair of standard, control, and test samples are averaged and the average background optical density readings are subtracted. […] Picograms of cytokine are determined from the standard curve. Mitogenic activity determined from the cpm of ^3H-thymidine is compared to the concentrations of cytokine in the experimental samples in the corresponding immunoassay. […]

[5] = system: IL-1; assay: ELISA of IL-1 production by splenocytes; type: cell-based, Balb C murine; conditions: 48 hours, PT 0.05 μg/ml
Method: as §5, §6, §7
Liquid is aspirated from the wells, and the wells are washed five times with surfactant diluted 1:25 with distilled water. A 100 μL aliquot of Conjugate is added to each well and incubated two hours at room temperature. The wells are again aspirated and each well washed five times.
One hundred microliters of Substrate Solution are added to each well and incubated 30 minutes at room temperature. Stop Solution (100 μl) is then added to each well. The color change is light blue to yellow (activity). The plate is read for absorbence at 450 nm and at 540 nm for background readings.
To calculate the results, the duplicate readings for each pair of standard, control, and test samples are averaged and the average background optical density readings are subtracted. A standard curve is constructed for the cytokine by plotting the mean absorbence for each standard on the y-axis against the concentration on the x-axis and drawing a best-fit curve. Picograms of cytokine are determined from the standard curve. Mitogenic activity determined from the cpm of ^3H-thymidine is compared to the concentrations of cytokine in the experimental samples in the corresponding immunoassay.
One measure of macrophage activation is the production of the cytokine interleukin-1 (IL-1) and also interleukin-12 (IL-12). Incubation of 3×10^5 Balb C murine spleen cells with 0.05 μg/ml PT was performed for 48 hours. The supernatant fluid was assayed with commercial ELISA kits for IL-1 and IL-12. […] Some experiments gave less […] and some more. This is likely a reflection of the state of the immune system in the experimental mice. The addition of KLH, an effective antigen, increased both IL-1 and IL-12 production, and the addition of PT along with the KLH further increased the production of these cytokines.

[6] = system: B16F10 melanoma tumor cells; assay: In vivo inhibition of B16F10 melanoma tumor development; design: species or system C57BL/6NCr female mice; conditions: B16 melanoma in C57 mice, sc 3 μg PT, 100 units IL-2
Method: C57BL/6NCr female mice (20 g), approximately 50 days old, were shaved in the abdominal area, ear notched for identification, and, two or three days prior to receiving tumor cells, pre-injected subcutaneously with the immunostimulating drugs described.
On “day zero,” B16F10 melanoma tumor cells, cultured in αMEM medium with 10% FBS, were injected intradermally (10^5 cells in 0.1 ml) in the center of the mouse abdomen using a 26 gauge ½ inch needle. Four to five hours later, the drug treatment (as specified) was injected intradermally in a different area of the abdomen than the site of the tumor injection.
Intradermal treatments using the immunostimulatory drug (as specified) continued either every other day or on a Monday-Wednesday-Friday injection schedule. Control tumors (in mice not receiving an immunostimulatory drug) usually formed within seven to ten days. Tumors were examined by visual inspection, measured (length by width), and the area of any resulting lesion was recorded as mm^2 every five days.
Mice were euthanized by CO2 inhalation if the tumor exceeded 500 mm^2. Some experiments were terminated early if all mice in the control group were dead, but the experiments were not less than 20 days. The normal duration of an experiment was about 30 days.
Pyrularia thionin, both alone and in combination with IL-2, was effective in preventing or retarding the development of melanoma tumors when C57BL/6NCr mice were pretreated before injection with B16F10 cells, which produce melanoma tumors.

[7] = system: non-adherent human PBLs; assay: Mitogen assay (^3H-thymidine uptake), human PBLs; type: cell-based; conditions: IL-2 50 units/ml alone (PT = 0)
Excerpt: as §1, §2, §3, §4

[8] = system: YAC-1 target cells; assay: Natural killer assay (^51Cr release), murine splenocytes against YAC-1; type: cell-based; conditions: Swiss Webster murine splenocytes; YAC-1 targets; 48 hours with drugs; PT 0.01 μg/ml, IL-2 50 units/ml when present; effector to target ratio 80
Method: Murine spleen cell and human peripheral blood lymphocytes (PBLs) were obtained as described in the procedure for the Mitogen Assay.
Drugs and control substances were added, using sterile techniques, to the wells of a 24-well plate, using RPMI-10 as the culture medium. Spleen cells or human lymphocytes were added last to the wells at a concentration of 4×10^6 cells per 2 ml total volume in the well. Splenocyte incubation was usually three days (65-70 hours) while human lymphocyte stimulation may be extended to four to five days. The cells were incubated at 37° C. in a humidified 5% CO2 incubator.
On the day of harvest, 10^7 target cells were labeled with 150 μCi of ^51Cr (sodium chromate). Target cells used were YAC-I (murine Lymphoma) or K562 (human chronic myelogenous leukemia).
The cells were adjusted to 2×10^7 cells/ml in RPMI-10 and 150 μCi of ^51Cr were added to 500 μl of the target cell suspension (10^7 total cells) and incubated in a 5% CO2 humidified incubator for 1.5 hours. The labeled cells were washed three times with 10 ml RPMI-10 and then resuspended in 5 ml (2×10^6 cells/ml). Supernatants from washings of labeled cells were isolated and contained under lead shielding.
The stimulated effector cells were thoroughly mixed and removed from individual wells of the 24-well plate and transferred to tubes for centrifugation at 200×g. The supernatants were decanted and the pelleted cells washed once with 2 ml RPMI-10. The cells were finally resuspended in a total volume of 500 μl at approximately 8×10^6 cells/ml in RPMI-10.
One hundred microliters of the effector cell suspension (8×10^5 cells) were added in triplicate to a 96-well, V-bottom microplate. RPMI-10 was added to the wells designated for spontaneous release and total release of the target cells. One hundred microliters of the target cell suspension (1×10^4 cells/well) were added to the wells for a total volume of 200 μl. The “total release” wells contained 15 μl of 9% Triton X-100, 85 μl of RPMI-10, and 100 μl of target cells.
The 96-well plate was centrifuged at 150×g for four minutes to gently bring the effector and target cells in contact. The plate was then incubated in a humidified 5% CO2 incubator. After four hours, the assay plate was again centrifuged for five minutes at 250×g. One hundred microliters of the supernatant was carefully removed from each well and placed in 12 mm×75 mm glass tubes for counting in a gamma counter. The percent release was calculated using the following formula: […]
Addition of PT stimulates both murine splenocytes and human PBLs to kill tumor cells through lysis. This effect is enhanced in the presence of IL-2. Experimentally, the YAC-1 tumor cell line is routinely used as a target cell for murine NK cells, and the K562 cell line is used as the target for human PBLs. The human prostate cell line DU145 was also included in the test. The data set out in Table 5 show an activation of both murine and human NK cells by PT and IL-2. For these experiments, the drugs, PT and IL-2, were included in the cell suspension and incubated for 48 hours. After this period, the splenocyte suspension was mixed with the YAC-1 target cells that had been loaded with ^51Cr for four hours. The human PBLs were added to a K562 or DU-145 cell suspension that had been similarly loaded. After a 30-minute incubation, the radioactivity in the supernatant fluid was counted as a measure of lysis of the target cells, which reflects NK activity. […]

Pyrularia thionin (from UniProt P07504) (peptide)
Kd [1]: 65 nM

OCCS [βME, β-mercaptoethanol, reference compound]
stimulation of the mitogen reaction ([2]; 0.1 μg/ml (PT 20 nM; βME 40 nM)): no stimulation

granulocyte-macrophage colony-stimulating-factor [GM-CSF]
Cpm, standard mitogen assay ([2]; GM-CSF (5 ng/ml) alone, no PT): 1,024 Cpm
Cpm, standard mitogen assay ([3]; GM-CSF (20 ng/ml) alone, no PT): 1,170 Cpm

keyhole limpet hemocyanin [KLH, reference compound]
IL-12 [4]: 21 ± 1.6 pg/mL
IL-1 ([5]; Experiment 1, KLH 10 μg/ml, control 3.9): 12.4 ± 0 pg/mL
IL-1 ([5]; Experiment 4, KLH (20 mg/ml), control 9): 9 ± 0.4 pg/mL
CPM of tritiated thymidine incorporated ([3]; KLH 20 μg/ml alone (PT = 0)): 3,301 ± 255 CPM

B1: interleukin-2 (protein, UniProt P04351 21-169, looked up)
Interleukin-2: APTSSSTSSSTAEAQQQQQQQQQQQQHLEQLLMDLQELLSRMENYRNLKLPRMLTFKFYLPKQATELKDLQCLEDELGPLRHVLDLTQSKSFQLEDAENFISNIRVTVVKLKGSDNTFECQFDDESATVVDFLRRWIAFCQSIISTSPQ
notes: immunostimulatory cytokine; murine IL-2 in the mouse experiments, purchased from Sigma
Average Tumor Size ([6]; 20-31 days): 364 mm^2
Number of Deaths ([6]; total mice 12 (IL-2), 15 (PT), 24 (PT + IL-2)): 1
Mice w/o Tumors ([6]; total mice 12 (IL-2), 15 (PT), 24 (PT + IL-2), 20-31 days): 0
CPM of tritiated thymidine incorporated [7]: 1,900 ± 64 CPM
% Cytotoxicity [8]: 16.3 ± 1.1%
CPM of tritiated thymidine incorporated ([3]; IL-2 50 units/ml alone (PT = 0)): 2,379 ± 87 CPM

From patent US7572436B1, “Thionin as an antineoplastic and immunostimulant” (priority 2000, dated 2009)
